According to patent US20030027228A1 (MYRIAD GENETICS, published 2003):
* marks the point of attachment. Biotin = O=C1N[C@H]2[C@H](CS[C@H]2CCCCC(=O)*)N1

T1: AF6 PDZ binding peptide biotin-SGDDGDDPFLQYEFYV-COOH (SMILES …)
T1 peptide: Biotin-SGDDGDDPFLQYEFYV-OH

T2: MMAC1.388-403 biotin-ENEPFDEDQHTQITKV-COOH (SMILES …)
T2 construct: also called the 16 C-terminal amino acids of MMAC1
T2 peptide: Biotin-ENEPFDEDQHTQITKV-OH

T3: SH3 binding peptide biotin-SGSGILAPPVPPRNTR-COOH (SMILES …)
T3 peptide: Biotin-SGSGILAPPVPPRNTR-OH

B1: GST fusion of MMSC1 PDZ domain 7 (amino acids 1238-1320) (other)
chain: HIIELEKDKNGLGLSLAGNKDRSRMSIFVVGINPEGPAAADGRMHIGDELLEINNQILYGRSHQNASAIIKTAPSKVKLVFIR
notes: Expressed in E. coli, purified on glutathione-agarose, adsorbed to the ELISA plate; GST is placed N-terminal as in pGEX vectors; also called MMSc1 PDZ 7; PDZ domain number 7; not shown: glutathione S-transferase (GST) encoded by pGEX vectors (Pharmacia)
B2: GST fusion of MMSC1 PDZ domain 6 (amino acids 1067-1158) (other)
chain: RIVEIFREPNVSLGISIVGGQTVIKRLKNGEELKGIFIKQVLEDSPAGKTNALKTGDKILEVSGVDLQNASHSEAVEAIKNAGNPVVFIVQS
notes: Expressed in E. coli, purified on glutathione-agarose, adsorbed to the ELISA plate; GST is placed N-terminal as in pGEX vectors; also called MMSc1 PDZ 6; PDZ domain number 6; not shown: glutathione S-transferase (GST) encoded by pGEX vectors (Pharmacia)
B3: GST fusion of MMSC1 PDZ domain 5 (amino acids 685-771) (other)
chain: KIVELVKDCKGLGFSILDYQDPLDPTRSVIVIRSLVADGVAERSGGLLPGDRLVSVNEYCLDNTSLAEAVEILKAVPPGLVHLGICK
notes: Expressed in E. coli, purified on glutathione-agarose, adsorbed to the ELISA plate; GST is placed N-terminal as in pGEX vectors; also called MMSc1 PDZ 5; PDZ domain number 5; not shown: glutathione S-transferase (GST) encoded by pGEX vectors (Pharmacia)
B4: GST fusion of MMSC1 PDZ domain 9 (amino acids 1532-1613) (other)
chain: FPVDLQKKAGRGLGLSIVGKRNGSGVFISDIVKGGAADLDGRLIQGDQILSVNGEDMRNASQETVATILKCAQGLVQLEIGR
notes: Expressed in E. coli, purified on glutathione-agarose, adsorbed to the ELISA plate; GST is placed N-terminal as in pGEX vectors; also called MMSc1 PDZ 9; PDZ domain number 9; not shown: glutathione S-transferase (GST) encoded by pGEX vectors (Pharmacia)
B5: GST fusion of MMSC1 PDZ domain 3 (amino acids 364-451) (other)
chain: YNVELVRKDGQSLGIRIVGYVGTSHTGEASGIYVKSVIPGSAAYHNGHIQVNDKIVAVDGVNIQGFANHDVVEVLRNAGQVVHLTLVR
notes: Expressed in E. coli, purified on glutathione-agarose, adsorbed to the ELISA plate; GST is placed N-terminal as in pGEX vectors; also called MMSc1 PDZ 3; PDZ domain number 3; not shown: glutathione S-transferase (GST) encoded by pGEX vectors (Pharmacia)
B6: GST fusion of MMSC1 PDZ domain 8 (amino acids 1436-1518) (other)
chain: MIIEISKGRSGLGLSIVGGKDTPLNAIVIHEVYEEGAAARDGRLWAGDQILEVNGVDLRNSSHEEAITALRQTPQKVRLVVYR
notes: Expressed in E. coli, purified on glutathione-agarose, adsorbed to the ELISA plate; GST is placed N-terminal as in pGEX vectors; also called MMSc1 PDZ 8; PDZ domain number 8; not shown: glutathione S-transferase (GST) encoded by pGEX vectors (Pharmacia)

Legend:
Assay in all cases: peptide binding ELISA: GST-PDZ on plate, biotin-peptide/streptavidin-alkaline phosphatase complex, colorimetric
[1] = target: T1, AF6 PDZ binding peptide …
From the text: (§1) cDNAs encoding each of the MMSC1 PDZ domains (amino acid residues identified in Table 1), and any desired control proteins, were generated by PCR and subcloned as glutathione S-transferase (GST) fusions in pGEX vectors (Pharmacia). After sequencing to confirm expression construct integrity, the resulting clones were expressed in E. coli and the desired fusion proteins isolated with glutathione-agarose and recovered with glutathione elution. These fusion proteins or control proteins were then adsorbed to different wells of a 96-well ELISA plate and remaining sites blocked with BSA. Synthetic commercially synthesized peptides encoding the desired PDZ-binding domain (i.e., the 16 C-terminal amino acids of MMAC1, or the C-terminal peptide sequences of interacting proteins identified by the approach of Example 2, or the C-terminal peptide sequences identified by the approach of Example 3), or a control peptide, and biotinylated at the amino-terminus, were pre-bound to streptavidin-alkaline phosphatase in a 4:1 molar ratio. The biotinylated peptide streptavidin-alkaline phosphatase complexes were then blocked with free biotin. These pre-bound peptide streptavidin-alkaline phosphatase complexes were then incubated with the immobilized PDZ domains in wash buffer containing PBS, BSA and triton-X100. Unbound material was removed with repeated washes. Bound peptide/streptavidin-alkaline phosphatase complex was then quantitated by a colorimetric phosphatase assay read on a 96-well plate reader.

[2] = target: T2, MMAC1.388-403 …
From the text: as §1

[3] = target: T3, SH3 binding peptide …
From the text: as §1

Binder	A405 [1]	A405 [2]	A405 [3]
B1	1.05 A405	1.25 A405	0.01 A405
B2	1.46 A405	0.23 A405	0 A405
B3	0.02 A405	0 A405	0 A405
B4	2.41 A405	0.1 A405	0.02 A405
B5	2.24 A405	0.01 A405	0.01 A405
B6	0.29 A405	0.3 A405	0 A405
